PMC3962721

Key:
DDB2 (FLAG-tagged, in …) [1] = molecular target: T1, DDB2 (FLAG-tagged, in DDB.com);DDB1;Cul4A;Roc1 (Homo sapiens?;Homo sapiens?;Homo …, UniProt Q92466;Q16531;Q13619;P62877 1-427;1-1140;1-759;1-108, |||); assay: competition
DDB2 (FLAG-tagged, in …) [2] = molecular target: T1, DDB2 (FLAG-tagged, in …); assay: competition; remark: listed apart in the source
DDB2 (FLAG-tagged, in …) [3] = molecular target: T1, DDB2 (FLAG-tagged, in …); assay: EMSA
DDB2 (FLAG-tagged, in …) [4] = molecular target: T1, DDB2 (FLAG-tagged, in …); assay: EMSA; remark: listed apart in the source

T1 sequence (Q92466 whole entry, chain 1 of 4): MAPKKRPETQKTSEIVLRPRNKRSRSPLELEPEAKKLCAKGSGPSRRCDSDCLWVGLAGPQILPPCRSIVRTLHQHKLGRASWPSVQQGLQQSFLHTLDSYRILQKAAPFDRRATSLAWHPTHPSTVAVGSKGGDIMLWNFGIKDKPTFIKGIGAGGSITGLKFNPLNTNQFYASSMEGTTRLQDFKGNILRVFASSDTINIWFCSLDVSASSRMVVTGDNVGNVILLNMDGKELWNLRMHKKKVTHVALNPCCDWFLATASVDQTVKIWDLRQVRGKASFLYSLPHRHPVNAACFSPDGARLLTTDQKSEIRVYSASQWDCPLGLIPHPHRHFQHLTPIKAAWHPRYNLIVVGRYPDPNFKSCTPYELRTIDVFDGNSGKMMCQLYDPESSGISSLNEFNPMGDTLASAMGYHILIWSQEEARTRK
T1 sequence (Q16531 whole entry, chain 2 of 4): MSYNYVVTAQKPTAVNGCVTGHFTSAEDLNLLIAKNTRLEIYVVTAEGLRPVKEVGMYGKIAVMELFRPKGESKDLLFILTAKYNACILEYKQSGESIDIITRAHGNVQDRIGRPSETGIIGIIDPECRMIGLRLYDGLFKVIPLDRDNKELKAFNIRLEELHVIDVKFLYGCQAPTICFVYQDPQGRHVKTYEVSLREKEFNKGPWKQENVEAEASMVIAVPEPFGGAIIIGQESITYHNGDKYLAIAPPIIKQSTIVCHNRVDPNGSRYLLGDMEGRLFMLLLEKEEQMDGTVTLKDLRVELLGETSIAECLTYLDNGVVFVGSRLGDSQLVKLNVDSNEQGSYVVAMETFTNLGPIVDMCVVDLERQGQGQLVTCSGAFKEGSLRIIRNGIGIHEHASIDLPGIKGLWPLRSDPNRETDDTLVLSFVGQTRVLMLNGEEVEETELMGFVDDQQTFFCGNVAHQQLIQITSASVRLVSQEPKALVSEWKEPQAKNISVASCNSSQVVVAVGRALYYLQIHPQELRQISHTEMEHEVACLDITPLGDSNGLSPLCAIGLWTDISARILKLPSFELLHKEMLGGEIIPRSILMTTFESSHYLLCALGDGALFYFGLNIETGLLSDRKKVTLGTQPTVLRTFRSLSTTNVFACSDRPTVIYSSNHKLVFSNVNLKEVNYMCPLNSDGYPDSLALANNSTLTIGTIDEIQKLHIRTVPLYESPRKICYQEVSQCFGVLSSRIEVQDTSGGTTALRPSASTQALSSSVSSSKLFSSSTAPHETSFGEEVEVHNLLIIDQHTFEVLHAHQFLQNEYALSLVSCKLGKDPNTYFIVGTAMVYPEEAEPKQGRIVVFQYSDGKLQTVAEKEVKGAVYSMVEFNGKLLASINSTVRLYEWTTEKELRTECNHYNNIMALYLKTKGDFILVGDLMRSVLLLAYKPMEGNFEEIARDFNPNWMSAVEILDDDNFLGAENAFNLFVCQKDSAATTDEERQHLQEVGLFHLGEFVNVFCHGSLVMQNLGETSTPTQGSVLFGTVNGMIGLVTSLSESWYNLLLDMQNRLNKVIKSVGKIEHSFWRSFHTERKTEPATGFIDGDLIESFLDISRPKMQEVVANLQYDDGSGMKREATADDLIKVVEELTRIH
T1 sequence (Q13619 whole entry, chain 3 of 4): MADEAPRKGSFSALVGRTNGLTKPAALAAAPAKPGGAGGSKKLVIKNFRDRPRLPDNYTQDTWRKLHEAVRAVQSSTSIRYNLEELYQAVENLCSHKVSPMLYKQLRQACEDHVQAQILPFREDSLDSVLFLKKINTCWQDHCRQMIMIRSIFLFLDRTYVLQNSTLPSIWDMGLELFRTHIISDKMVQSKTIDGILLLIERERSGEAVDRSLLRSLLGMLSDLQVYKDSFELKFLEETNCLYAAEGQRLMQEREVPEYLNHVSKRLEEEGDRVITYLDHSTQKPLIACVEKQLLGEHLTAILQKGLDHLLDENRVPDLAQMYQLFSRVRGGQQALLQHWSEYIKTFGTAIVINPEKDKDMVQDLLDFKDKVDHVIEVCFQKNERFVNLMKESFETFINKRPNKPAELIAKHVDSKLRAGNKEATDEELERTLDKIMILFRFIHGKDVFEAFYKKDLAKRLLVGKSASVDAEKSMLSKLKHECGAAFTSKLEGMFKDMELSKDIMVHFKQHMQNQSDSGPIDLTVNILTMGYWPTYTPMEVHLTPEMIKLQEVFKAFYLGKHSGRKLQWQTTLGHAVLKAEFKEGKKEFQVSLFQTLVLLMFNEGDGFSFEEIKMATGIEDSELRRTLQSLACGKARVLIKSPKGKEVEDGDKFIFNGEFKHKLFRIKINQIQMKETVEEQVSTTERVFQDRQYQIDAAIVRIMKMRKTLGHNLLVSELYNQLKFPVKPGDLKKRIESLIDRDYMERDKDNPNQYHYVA
T1 sequence (P62877 whole entry, chain 4 of 4): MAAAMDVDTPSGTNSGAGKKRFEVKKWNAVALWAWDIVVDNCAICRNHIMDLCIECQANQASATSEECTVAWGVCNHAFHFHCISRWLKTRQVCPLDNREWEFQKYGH

B1: Ow (unlabeled wild-type BCP1 competitor) (dsDNA)
DNA 1: ATTAGGAGCTTGAAGCCTTTCAAT
DNA 2: ATTGAAAGGCTTCAAGCTCCTAAT
binding result (DDB2 (FLAG-tagged, in …) [1]): binds

B2: Om (unlabeled mutant BCP1 competitor) (dsDNA)
DNA 1: ATTAGGATATTGAAGCCTTTCAAT
DNA 2: ATTGAAAGGCTTCAATATCCTAAT
binding result (DDB2 (FLAG-tagged, in …) [2]): no binding

B3: MnSOD probe (dsDNA)
DNA 1: GAGGCTAGCCTGCAGCCTCCTTTCTCC
DNA 2: GGAGAAAGGAGGCTGCAGGCTAGCCTC
binding result (DDB2 (FLAG-tagged, in …) [3]): binds

B4: Bcl-2 probe (BCP1) (dsDNA)
DNA 1: ATTAGGAGCTTGAAGCCTTTCAAT
DNA 2: ATTGAAAGGCTTCAAGCTCCTAAT
binding result (DDB2 (FLAG-tagged, in …) [4]): binds
